Here are results for 1 substance from PMC2680549.

For the assay, the target named is N-terminal domain of Bag2 (Bag2-NTD). The experiment in a line: SEC. A general note: Size exclusion chromatography separates by hydrodynamic size, large species first.

What is called stoichiometry N is the number of molecules, sites or subunits per partner or assembly.

N-terminal domain of Bag2 (Bag2-NTD) (domain or fragment), sequence (Q91YN9 104-194): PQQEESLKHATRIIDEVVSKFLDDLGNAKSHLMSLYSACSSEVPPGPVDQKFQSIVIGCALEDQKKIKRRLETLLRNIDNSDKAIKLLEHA

With “N-terminal domain of Bag2 (Bag2-NTD) (domain or fragment)”, the stoichiometry N turned out to be 2.
